Assay results as given in the DeepSol protein solubility set.

Assay: soluble on expression in E. coli; label from the status in PepcDB or PDB records

**Q.** For “MTARAIIIGAPRSGSGKTSVTIGLLRAFARRGVKVRGIKTGPDYIDPGFHAFATGTPGLNLDSWAMQPDLLRHLFSQQTEDAELILIESAMGLFDGIPVAENRTGSAADLARLFRIPVLLVLDVSGQSQTAATIAHGFAHYDPDVTMGAVVLNRAGSERHRTLCTEAIEKIGLPVVGCVLRDPSLILPERHLGLVQASEHPEIDPHIDRLADAMEKSIDLDTLFSLAAPVDMPCGSVAAAIAPPGQRIALAEDAAFTFLYPHLRRHWRAAGAEIVPFSPLADEAPDESCDICWLPGGYPELFAGKLADAVGFKAGITRFAETKPVHGECGGYMVLGERLEDAEGVIHAMTGLLSHATSFATRKMNLGYRQATIAADSPLGMAGDVLRGHEFHYARVIDPGRDQPFAHMADGQGRPLGPSGGRRGFVSGTFFHAIAKGGLEHHHHHH”, which “soluble on expression in E. coli” value is on record?
**A.** Its value is “not soluble”.

**Q.** For “MCLILTAWHAHPAYALVVAANRDEFYDRPAAPLAWWSDAPHVLAGRDLAQVVGHAGTWMGMTRDGRFAALTNYRAPSERRPDARSRGELVANFLAAEDASIPAYLDQLKARNGVYNGYNLLTATRDELWWTSNRAEAPRQLAPGVYGLSNALLDTPWFKVRHRVAAFAEALAADTGRHGNAIDVARYLDLLAETREAPLGALPATGVAPEWEKLLSAAFIRSPRYGTRASTVLRIRHDGCFDVTERRFDAQGQIGETRYLGVLDAVTQADTPLEHHHHHH”, which “soluble on expression in E. coli” value is on record?
**A.** Its value is “not soluble”.

**Q.** With “MGSDKIHHHHHHMNLLDHLRRMAGNNLWSNDRLYRAVLALKPGEFEAERTSFFPSIKATLNHVLAVDYLYLDFLEEGGVGAAAHDDFVPFDEPQPLFAAQMAADRRLIAFCDGLSEADLDRRVITDRRADGMIPERIGDILAHVFLHDIHHRGQVHAMLSGTSVVPPQLDEFLLDYDAKLRKAEVERLGL” as the sequence, how does the “soluble on expression in E. coli” value read?
**A.** Its value is “not soluble”.

**Q.** Which “soluble on expression in E. coli” value does the source give for “MPDLSAAEFTLLQGAHLFAPEDRGICDVLLANGKIIAVGAGIPGDIVPDCTVINLSGRMLCPGFIDQHVHLIGGGGEAGPTTRTPEVSLSRLTEAGITTVVGLLGTDSVSRHPASLLAKTRALNEEGITAWMLTGAYHVPSPTITGSVEKDVALIDRVIGVKCAVSDHRSAAPSGNQLASMAAESRVGGLLGGKPGVSVFHMGSSKKGLQPLYDILENSDVPIGKLLPTHVNRSESLFEQALAFALKGGVIDITTSIPDPVAPAEGIARAVKAGVPLSRVTLSSDGNGSQPLFDAAGNLTGIGVAGFESLLETLQTLVNHYGFSLANALRPLTTSVAAFLSLDGKGEIRPGNDADLLVFSADLRIEQVYARGKRMVNEGKACVKGTFEPA” here?
**A.** Its value is “not soluble”.

**Q.** For “VRSYLLRIELADRPGSLGSLAVALGSVGADILSLDVVERGNGYAIDDLVVELPPGAMPDTLITAAEALNGVRVDSVRPHTGLLEAHRELELLDHVAAAEGATARLQVLVNEAPRVLRVSWCTVLRSSGGELHRLAGSPGAPETRANSAPWLPIERAAALDGGADWVPQAWRDMDTTMVAAPLGDTHTAVVLGRPGPEFRPSEVARLGYLAGIVATMLR”, which “soluble on expression in E. coli” value is on record?
**A.** Its value is “soluble”.

**Q.** For “RAKAFIDAANQYSINELYLISHALLETGNGTSALANGLTYNGKTVYNMYGIGAYDSNPNYYGAKYAYEQGWFTPEAAIIGGAKFIGSSYIHNTAYNQDTLYKMRWSATATHQYATDIGWAYKQVNRMYSLYSLLDG”, which “soluble on expression in E. coli” value is on record?
**A.** Its value is “not soluble”.

**Q.** With “AHHHHHHGSSNIVKGIVKWVEGEQFIGGIEGENCSVILGEGGISPMKLLLLSVAGCTAYDVVMILRKMREPIRGLRVEIEGVRREEHPRVYKEVTIHYKIYGKVDEKKARRAIELSQEKYCSASAHLKLGGTIVRYTLEIFDDEPPSHAEG” as the sequence, how does the “soluble on expression in E. coli” value read?
**A.** Its value is “soluble”.

**Q.** With “MGSDKIHHHHHHMTETTSSPQHYLGWDIGGANLKVALVRPDGIAVKVIQVPCPLWQGMDRLDAAIDLALAELGGPGGAKHSVTMTGELADIFPDRASGVWEIALRTHAMLGSELCFFAGASGFVPLAQVQQHANAIASANWLASAAFVATKLQQGLFIDIGSTTADFVLLHDGRPVNRGQTDAERMQHEELVYTGVARTSLMALASRIPFAGQWQNVAAEHFATTADVYRLTGELDPAEDMAATADGAGKSMDETCRRLARMVGRDADDADKTAWVHLAQAFRQQQLAILRDAVLCNLSRNVVRPGAPFIGAGAGVFLVRELAQQLGHEFLAASSLLKAESDQARNWAGVCLPAYAVANLGITANSQERAC” as the sequence, how does the “soluble on expression in E. coli” value read?
**A.** Its value is “not soluble”.

**Q.** For “MVALQIPSLAATVRQDFPILNQEINGHPLVYLDNAATSQKPRAVLEKLMHYYENDNANVHRGAHQLSVRATDAYEAVRNKVAKFINARSPREIVYTRNATEAINLVAYSWGMNNLKAGDEIITTVMEHHSNLVPWQMVAAKTGAVLKFVQLDEQESFDLEHFKTLLSEKTKLVTVVHISNTLGCVNPAEEIAQLAHQAGAKVLVDACQSAPHYPLDVQLIDCDWLVASGHKMCAPTGIGFLYGKEEILEAMPPFFGGGEMIAEVFFDHFTTGELPHKFEAGTPAIAEAIALGAAVDYLTDLGMENIHNYEVELTHYLWQGLGQIPQLRLYGPNPKHGDRAALASFNVAGLHASDVATMVDQDGIAIRSGHHCTQPLHRLFDASGSARASLYFYNTKEEIDLFLQSLQATIRFFSDDDFTV”, which “soluble on expression in E. coli” value is on record?
**A.** Its value is “soluble”.

**Q.** Which “soluble on expression in E. coli” value does the source give for “MGSDKIHHHHHHMPTNVTAEYLAAEEEYRNAKTIPEKIRALEKMYALVPKHKGTEKLRLQIKRKLAELRKELEKQRQQRKGGGYSLAVKKEGAAQIVLVGLPNVGKSELLKALTGVDVESADYPFTTTEPVPAMLNYKDVQIQLVEVPGLIEGAALGKGMGPQLLAVVRNADAIAIVVDLSEDPVRQMNILLQEFERAGIKVNKKKPKVEIRKTPSGGIVINGIENIKGDIDEVMKMLREEKIHSAEITVMEPVTLEEFADALDDSLVWKKAIIIANKGDAPGSRANYEKLVKAFGERFKIIPVSAKKRINLEAVKEAIYEIADIIRVFTKSPGEEPAYPPIALRKGATVQDVAERIHKDLVKNFKYARVWGKSVKFPGQRVGLDHVLEDGDIVEIHAR” here?
**A.** The value was “not soluble”.

**Q.** For “LAVLMVLAVNFGTVTTFAAMSDEAESISVNKPVTDNLSSVNDVKYYEVELPAPGKVNLSFSHANLERTYVYWKVTMFDSVENEVLYFESTGTNTDGKSMSVYLDKGTYYVRVKSEGYWYSTTDYTLCVNYTENKGEYEIEPNYSKELATEISVNKPVIGNHRVKGDTDFYKFTISEPGKVDLSFNHANLERTYVYWKVTMFDSVENIVLYFESTGTNTTGKSMNAYLSEGTYYIRVTTDDYWHSTADYTLCVNYTENQGEYEIEPNNSQDNATLIEVDEPVTGNLRTSSDVDYYRFVMPDSGKVYLGFNHPNLERTYVYWKVSLYDANGNRLYQLNSRGTDTVGKSDEIKIGSGTYYVKVEYEGYWHSSADYSLTVNTVGGIPKVKVFLNGKRIRFDQPPIIQNGRTLVPLRAIFEAMNATVSWDDKTKTVTAKKGDTTIVMTIGNKTMKKNGVAIELDVPPQIVNGRTLVPARAVAESFGAKVDWDGSTRTVTITEGN”, which “soluble on expression in E. coli” value is on record?
**A.** The value was “not soluble”.

**Q.** Which “soluble on expression in E. coli” value does the source give for “MSFMPAIVGPIAINSISGGVVNFGDSFYLSPKSSSKSALGSGAGNTGDFLLLNNAVNATNYIDPDVNDQDMVGNGLEHHHHHH” here?
**A.** The value was “not soluble”.

**Q.** With “MAHHHHHHMEGDISSSAFVCGFTAHRAHPLSPISDIRDLCVPRTSTPSASSHALAQALSFPRRPLPHRLLASCLLITTTNRFQAHCSRSAATQPPPPLPCGTTTEREYGWDGLAVFLSADSRVFRSPFSTIVSRFSPFVAAMSDRDVPASMTRTCAPPKAHFLFCSTDARNAAPASNGDVAKLPAPKKPISAPLTPFQSPVDTHRDRHSSRHASPPRQLGRPLPPTQPSFSDVAKRMGSFNDMCEANSLLSSHVRLGEMSTLGISASTSTIPAGSSGSTTSLHWLRIAEDRVMPHPSSTKPAPAALQRNAEYVLERWVEQKVHRTAAMDDAMMKVAAAFDELYA” as the sequence, how does the “soluble on expression in E. coli” value read?
**A.** The value was “soluble”.

**Q.** Which “soluble on expression in E. coli” value does the source give for “TGAQTKLTQTGAITTVNVDHLKANPSSSIVNTLAGNVAGVLAMQTSGQPGKNVSEFWIRGISTFGASTSAYVLVDGFERSMDEINIEDIESFSVLKDASATAIYGSKGANGVVLITTKHGKAG” here?
**A.** Its value is “not soluble”.

**Q.** Which “soluble on expression in E. coli” value does the source give for “SPSAEECGYSDRVRSITLGNSTITTQESANVVVGYGRWPEYLRDDEATAEDQPTQPDVATCRFYTLESVTWEKDSPGWWWKFPDALKDMGLFGQNMYYHYLGRAGYTIHVQCNASKFHQGCLLVVCVPEAEMGCSTVDGTVNEHGLSEGETAKKFSATGTNGTNTVQSIVTNAGMGVGVGNLTIFPHQWINLRTNNCATIVMPYINNVPMDNMFRHHNFTLMIIPFVPLNYSSDFSTYVPITVTVAPMCAEYNGLRLSTALQ” here?
**A.** Its value is “soluble”.

**Q.** With “MKLNIRAQTAQNQHNNSPIVLVHGLFGSLDNLGVLARDLVNDHNIIQVDVRNHGLSPREPVMNYPAMAQDLVDTLDALQIDKATFIGHSMGGKAVMALTALAPDRIDKLVAIDIAPVDYHVRRHDEIFAAINAVSESDAQTRQQAAAIMRQHLNEEGVIQFLLKSFVDGEWRFNVPVLWDQYPHIVGWEKIPAWDHPALFIPGGNSPYVSEQYRDDLLAQFPQARAHVIAGAGHWVHAEKPDAVLRAIRRYLNDH” as the sequence, how does the “soluble on expression in E. coli” value read?
**A.** The value was “soluble”.

**Q.** With “MQHEEGNRQRPQGELLLRTVAMPRDTNPNQDIFGGWIMSQMDLGGGILAAEIARGRIVTVAVQEMNFIRPVKVGNVVCCYGHCVRVGNTSLQLKVEVWVKTLMNDCVTEDRHLVTEAVFTYVAIDAEGNPRPIPKEGNPILAGLLPTPLEHHHHHH” as the sequence, how does the “soluble on expression in E. coli” value read?
**A.** The value was “soluble”.

**Q.** Which “soluble on expression in E. coli” value does the source give for “GPLGSPEFPGRRKPEAQPFAHLTINAASIPSGSHKVTLSSWYHDRGWAKISNMTLSNGKLRVNQDGFYYLYANICFRHHETSGSVPTDYLQLMVYVVKTSIKIPSSHNLMKGGSTKNWSGNSEFHFYSINVGGFFKLRAGEEISIQVSNPSLLDPDQDATYFGAFKVQDID” here?
**A.** Its value is “soluble”.

**Q.** Which “soluble on expression in E. coli” value does the source give for “MQNSTTEFLKPRQIDVNTFSATRAKVSMQPFERGFGHTLGNALRRILLSSMNGFAPTEVAIAGVLHEYSTVDGIQEDVVDILLNIKGIVFKLHGRSQVQLVLKKSGSGVVSAGDIELPHDVEILNPGHVICHLADNGQIEMEIKVEQGRGYQSVSGRQVVRDENRQIGAIQLDASFSPISRVSFEVEPARVEQRTDLDKLVLDIETDGSIDPEEAVRSAARILIDQMSIFADLQGTPVEEVEEKAPPIDPVLLRPVDDLELTVRSANCLKAEDIYYIGDLIQRTETELLKTPNLGRKSLNEIKEVLASKGLTLGSKLEAWPPVGLEKP” here?
**A.** Its value is “soluble”.

**Q.** Which “soluble on expression in E. coli” value does the source give for “MGSDKIHHHHHHMITHQDLKQLQSLTKVPALSILLPTHRTSPDNKQDPILVKNLVSEATKRLDKEFTSRQLEPLLKQLETLVSEIDYPHTLDGLALYVSHDFAKLYYLPFPVPARVVIDQTFATRDLVYGRHREHRYWVLLLSQASTRLLAGTGETLEEVNDENFPMQMTGPGATTPLPYETDSSYRDDRYRRFFQQVNSALTLYENDSLPLIVGGVERQISFFQEVSQNTQAMSPRGYAYAGTLRGNFDRATIHELTPQVWSIMQSVQEAQQAEALQALDDAMGTQSVVSTIGEVWRLAHEGRGKLLLVEKNYHVPAILTEDGRFELVDQPGGTDVMDDAVDEIIEVVLAKGGKVAIVDDEVLSIYQRIALIFRY” here?
**A.** Its value is “not soluble”.

**Q.** For “MGSDKIHHHHHHMIDLDFRKLTIEECLKLSEEEREKLPQLSLETIKRLDPHVKAFISVRENVSVEKKGKFWGIPVAIKDNILTLGMRTTCASRILENYESVFDATVVKKMKEAGFVVVGKANLDEFAMGSSTERSAFFPTRNPWDLERVPGGSSGGSAAAVSAGMVVAALGSDTGGSVRQPASLCGVVGYKPTYGLVSRYGLVAFASSLDQIGPITKTVRDAAILMEIISGRDENDATTVNRKVDFLSEIEEGVSGMKFAVPEEIYEHDIEEGVSERFEEALKLLERLGAKVERVKIPHIKYSVATYYVIAPAEASSNLARFDGVKYGLRIKEKGLREMYMKTRNVGFGEEVRRRIMIGTFTLSAAYYEAYFNKAMKVRRKISDELNEVLSQYDAILTPTSPVTAFKIGEIKDPLTYYLMDIFTIPANLAGLPAISVPFGFSNNLPVGVQVIGRRFADGKVFRIARAIEKNSPYNENGMFPLPEVKA”, which “soluble on expression in E. coli” value is on record?
**A.** Its value is “not soluble”.
